The chains are these.
B1: CPEB3 Ribozyme (parent)
chain: GGGGGCCACAGCAGAAGCGUUCACGUCGCGGCCCCUGUCAGAUUCUGGUGAAUCUGCGAAUUCUGCUGU

The variants in the data set derive from B1. Briefly: self-cleavage, relative activity (ratio to wild type); higher = more cleavage; co-transcriptional.
As for GGGGGCCACAGCAGAAGCGAUCACUUCGCGGCCCCUGUCAGAUUCUGGUGAAUCUGCGAAUUCUGCUGU [U20A G25U], the self-cleavage was determined as 0.135.
Next, GGGGGCCACAGCAGAAGCGAUCACAUCGCGGCCCCUGUCAGAUUCUGGUGAAUCUGCGAAUUCUGCUGU [U20A G25A]: 0.198; GGGGGCCACAGCAGAAGCGAUCACCUCGCGGCCCCUGUCAGAUUCUGGUGAAUCUGCGAAUUCUGCUGU [U20A G25C]: 0.165; GGGGGCCACAGCAGAAGCGAUCCCGUCGCGGCCCCUGUCAGAUUCUGGUGAAUCUGCGAAUUCUGCUGU [U20A A23C]: 0.149.
Under GGGGGCCACAGCAGAAGCGAUCACGUUGCGGCCCCUGUCAGAUUCUGGUGAAUCUGCGAAUUCUGCUGU [U20A C27U] stands 0.149; under GGGGGCCACAGCAGAAGCGAUCACGUGGCGGCCCCUGUCAGAUUCUGGUGAAUCUGCGAAUUCUGCUGU [U20A C27G], 0.152.
GGGGGCCACAGCAGAAGCGAUCACGUCGCGGCCCCUGUCGGAUUCUGGUGAAUCUGCGAAUUCUGCUGU [U20A A40G]: the self-cleavage stood at 0.11.
Turning to GGGGGCCACAGCAGAAGCGAUCACGUCGCGGCCCCUGUCAGAUUCUGGUGAAUCUGCGAAUUCUGCUGU [U20A], the self-cleavage came out at 0.157.
For GGGGGCCACAGCAGAAGCGAUCACGUCCCGGCCCCUGUCAGAUUCUGGUGAAUCUGCGAAUUCUGCUGU [U20A G28C], the self-cleavage stood at 0.14.
As for GGGGGCCACAGCAGAAGCGAUCACGUCUCGGCCCCUGUCAGAUUCUGGUGAAUCUGCGAAUUCUGCUGU [U20A G28U], the self-cleavage was 0.182.
As to GGGGGCCACAGCAGAAGCGAUCACGUCACGGCCCCUGUCAGAUUCUGGUGAAUCUGCGAAUUCUGCUGU [U20A G28A], the self-cleavage amounted to 0.12.
Under GGGGGCCACAGCAGAAGCGAUCACGUCGCGGCCCCUGUCAGCUUCUGGUGAAUCUGCGAAUUCUGCUGU [U20A A42C] stands 0.0988; under GGGGGCCACAGCAGAAGCGAUCACGUCGCGGCCCCUGUCAGGUUCUGGUGAAUCUGCGAAUUCUGCUGU [U20A A42G], 0.0639.
Under GGGGGCCACAGCAGAAGCGAUAACGUCGCGGCCCCUGUCAGAUUCUGGUGAAUCUGCGAAUUCUGCUGU [U20A C22A] stands 0.152.
GGGGGCCACAGCAGAAGCGAUGACGUCGCGGCCCCUGUCAGAUUCUGGUGAAUCUGCGAAUUCUGCUGU [U20A C22G]: the self-cleavage was found to be 0.119.
Next, GGGGGCCACAGCAGAAGCGAUUACGUCGCGGCCCCUGUCAGAUUCUGGUGAAUCUGCGAAUUCUGCUGU [U20A C22U]: 0.176; GGGGGCCACAGCAGAAGCUUUCACGUCGCGGCCCCUGUCAGAUUCUGGUGAAUCUGCGAAUUCUGCAGU [G19U U67A]: 0.479; GGGGGCCACAGCAGAAGCUUUCACGUCGCGGCCCCUGUCAGAUUCUGGUGAAUCUGCGAAUUCUGCGGU [G19U U67G]: 0.546.
In the case of GGGGGCCACAGCAGAAGCUUUCACGUCGCGGCCCCUGUCAGAUUCUGGUGAAUCUGCGAAUUCUGCCGU [G19U U67C], the self-cleavage came out at 0.461.
Under GGGGGCCACAGCAGAAGCGAUCACGUCGGGGCCCCUGUCAGAUUCUGGUGAAUCUGCGAAUUCUGCUGU [U20A C29G] stands 0.157; under GGGGGCCACAGCAGAAGCGAUCACGUCGUGGCCCCUGUCAGAUUCUGGUGAAUCUGCGAAUUCUGCUGU [U20A C29U], 0.155.
Under GGGGGCCACAGCAGAAGCGAUCACGUCGAGGCCCCUGUCAGAUUCUGGUGAAUCUGCGAAUUCUGCUGU [U20A C29A] stands 0.194; under GGGGGCCACAGCAGAAGCGAUCACGUCGCGGCCCCUGUCAGAUUCUGGUGAAUCUGCAAAUUCUGCUGU [U20A G58A], 0.208.
Under GGGGGCCACAGCAGAAGCGAUCACGUCGCGGCCCCUGUCAGAUUCUGGUGAAUCUGCUAAUUCUGCUGU [U20A G58U] stands 0.152.
Regarding GGGGGCCACAGCAGAAGCGAUCACGUCGCGGCCCCUGUCAGAUUCUGGUGAAUCUGCGAAUUCUGGUGU [U20A C66G], the self-cleavage worked out at 0.133.
Regarding GGGGGCCACAGCAGAAGCGAUCACGUCGCGGCCCCUGUCAGAUUCUGGUGAAUCUGCGAAUUCUGUUGU [U20A C66U], the self-cleavage amounted to 0.205.
Next, GGGGGCCACAGCAGAAGCGAUCACGUCGCGGCCCCUGUCAGAUUCUGGUGAAUCUGCGAAUUCUGAUGU [U20A C66A]: 0.154.
In the case of GGGGGCCACAGCAGAAGCGAUCACGUCGCGGCCCCUGUCAGAUUCUGGUGAAUCUGCGAGUUCUGCUGU [U20A A60G], the self-cleavage amounted to 0.146.
Under GGGGGCCACAGCAGAAGCGAUCACGUCGCGGCCCCUGUCAGAUUCUGGUGAAUCUGCGACUUCUGCUGU [U20A A60C] stands 0.114; under GGGGGCCACAGCAGAAGCGAUCACGUCGCGGUCCCUGUCAGAUUCUGGUGAAUCUGCGAAUUCUGCUGU [U20A C32U], 0.148; under GGGGGCCACAGCAGAAGCGAUCACGUCGCGGGCCCUGUCAGAUUCUGGUGAAUCUGCGAAUUCUGCUGU [U20A C32G], 0.171.
Under GGGGGCCACAGCAGAAGCGAUCACGUCGCGGACCCUGUCAGAUUCUGGUGAAUCUGCGAAUUCUGCUGU [U20A C32A] stands 0.153.
Under GGGGGCCACAGCAGAAGCGAUCACGUCGCGGCCCCUGUCAGAUUCUGGUGAAUUUGCGAAUUCUGCUGU [U20A C54U] stands 0.124.
For the variant GGGGGCCACAGCAGAAGCGAUCACGUCGCGGCCCCUGUCAGAUUCUGGUGAAUGUGCGAAUUCUGCUGU [U20A C54G], the self-cleavage is 0.194.
Next, GGGGGCCACAGCAGAAGCGAUCACGUCGCGGCCCCUGUCAGAUUCUGGUCAAUCUGCGAAUUCUGCUGU [U20A G50C]: 0.188; GGGGGCCACAGCAGAAGCGAUCACGUCGCGGCCCCUGUCAGAUUCUGGUUAAUCUGCGAAUUCUGCUGU [U20A G50U]: 0.141.
With GGGGGCCACAGCAGAAGCGAUCACGUCGCGGCCCCUAUCAGAUUCUGGUGAAUCUGCGAAUUCUGCUGU [U20A G37A], the self-cleavage was 0.13.
Turning to GGGGGCCACAGCAGAAGCGAUCACGUCGCGGCCCCUCUCAGAUUCUGGUGAAUCUGCGAAUUCUGCUGU [U20A G37C], the self-cleavage worked out at 0.156.
Consider GGGGGCCACAGCAGAAGCGAUCACGUCGCGGCCCCUGUCACAUUCUGGUGAAUCUGCGAAUUCUGCUGU [U20A G41C], for which the self-cleavage was 0.133.

These data come from the RNAGym collection of RNA variant scans (doi:10.7554/elife.80360).
